From PMC8960874 (Nature Communications, 2022)

Target: T1, WT ectodomain of the SARS-CoV-2 spike trimer (SARS-CoV-2, original …, stabilised)
T1 construct: also called S trimer; prefusion spike trimer ectodomain
Experiment: cryo-EM structure
Conditions: both partners purified

Binder	stoichiometry N
Clone 6 Fab (Fab, V domains shown, also called Fab6; Fab clone 6) VH: QVQLQQSAAELARPGASVKMSCKASGYTFTSYTMHWVKQRPGQGLEWIGYINPTSGYTEYNQNFKDKTTLTADKSSSTAYMQLNSLTSEDSAVYYCAREGHRVGPAYWGQGTLVTVSA VL: not shown	3 Fab molecules per S trimer
Clone 2 Fab (Fab, V domains shown, also called Fab2; Fab clone 2) VH: EVQLQQSGPELVKPGASVKISCKASGYSFTGYSMNWMKQSPEKSLEWIGEINPSTGGTTDNQKFKAKATLTVDKSSSTAYMQLKSLTSEDSAVYYCARSRGDYWGQGTSVTVSS VL: DIVLTQSPASLAVSLGQRATISCRASESVEYYGTSLMQWYQQKPGQPPKVLIYAASNVESGVPARFSGSGSGTDFSLNIHPVEEDDIAMYFCQQSRKVPWTFGGGTKLEIK	3 Fab molecules per S trimer
